Experiments:
[1] = Phase II study with gemcitabine in platinum-resistant ovarian cancer (TOC3258g), PK; assay type: in vivo, human
[2] = Phase II single-agent Study TOC2689g (ovarian cancer), serum pharmacokinetics; assay type: in vivo, human; settings: for CL, systemic clearance (mean ± SD) / Vc, volume of central compartment (mean ± SD) / Vss, steady-state volume of distribution (mean ± SD) / t1/2 initial, initial distribution half-life (mean ± SD) / t1/2 terminal, terminal half-life (mean ± SD): intravenous infusion, 2-compartment population PK model
Excerpt: (§1) Mean serum Cmin and Cmax for the first two cycles of treatment in ovarian and metastatic breast cancer (MBC) patients are presented in Table 3.
(§2) PK parameters were estimated using a two-compartment model (see Table 4).

[3] = Previous pertuzumab studies, PK summary (two-compartment model); assay type: in vivo, human
Excerpt: (§3) Population PK modeling of data from Phase Ia and Phase II studies support the continued use of fixed, non-weight-based dosing in female patients.

[4] = test system: non-small cell lung cancer (NSCLC) and breast cancer tumors (low and high HER2 expression levels); assay: Nonclinical dose-response xenograft studies; assay type: in vivo; settings: nude mice, NSCLC and breast cancer xenografts
[5] = Multi-dose intravenous toxicity and toxicokinetic studies (Studies 00-377-1821 and 01-458-1821), cardiac endpoints; assay type: in vivo; settings: 7-week and 26-week intravenous studies, cynomolgus monkeys
Experimental: In a 7-week intravenous toxicity and toxicokinetic study in cynomolgus monkeys with a 4-week recovery period (Study 00-377-1821), telemetry was measured in two animals per sex in the control and high-dose (150 mg/kg/dose) groups to collect electrocardiographic endpoints. At two timepoints before the initiation of treatment, and on Days 1 and 28, telemetered animals had systolic, diastolic, and mean arterial blood pressure, heart rate, PR interval, QRS, QT, and Lead II ECG data recorded. Four 1-minute tracings were collected for each animal from 2 to 22 hours after dosing and interpreted by a board-certified veterinary cardiologist. In addition to the routine serum chemistry parameters evaluated, serum was also analyzed for creatinine kinase isozymes and Troponin T on Study Days 2/3 and 44/45 for all animals. […] Recordings were taken at two timepoints before the initiation of treatment and once during Weeks 4, 16, and 26 on anesthetized animals and were interpreted by a board-certified veterinary cardiologist. In addition to the routine serum chemistry parameters evaluated, serum was also analyzed for Troponin T on Day 1 predose and on Days 114, 184, and 239 (recovery) for all animals.

[6] = Phase II single-agent studies TOC2689g and BO16934 taken together, serum pharmacokinetics; assay type: in vivo, human
Excerpt: as §3, §1, §2

[7] = Preliminary population PK analysis of Studies TOC2297g, TOC2689g and B016934; assay type: in vivo, human; settings: 153 patients, 1458 concentration-timepoints
[8] = Phase Ib combination studies with capecitabine (BO17003) and docetaxel (BO17021), PK; assay type: in vivo, human
Excerpt: In both studies, the PK parameters for pertuzumab were similar to the PK parameters obtained in single-agent pertuzumab studies.

[9] = test system: incurable, locally advanced, recurrent or metastatic solid tumors; settings: cited from earlier work
[10] = Phase II single-agent Study BO16934 (metastatic breast cancer), serum pharmacokinetics; assay type: in vivo, human; settings: for CL, systemic clearance (mean ± SD) / Vc, volume of central compartment (mean ± SD) / Vss, steady-state volume of distribution (mean ± SD) / t1/2 initial, initial distribution half-life (mean ± SD) / t1/2 terminal, terminal half-life (mean ± SD): intravenous infusion, 2-compartment population PK model
Excerpt: as §1, §2

[11] = Clinical trials as of November 2006, torsades de pointes; assay type: in vivo, human; settings: pertuzumab-treated patients
[12] = cited from earlier work
[13] = test system: previously treated HER2-positive metastatic breast cancer; settings: in combination with trastuzumab; 11 patients enrolled; cited from earlier work
[14] = two-compartment model, typical patient
[15] = two-compartment model, Studies TOC2689g and BO16934
[16] = Phase I, intravenously every 3 weeks

For “pertuzumab: antibody comprising the light and heavy chain amino acid sequences in SEQ ID NOs. 7 and 8; HER dimerization inhibitor binding HER2”, the “serum concentrations of pertuzumab compared with single-agent Phase II studies” value ([1]; in combination with gemcitabine) was “similar”, the “effect on the PK of gemcitabine or its major metabolite, dFdU” value ([1]; preliminary PK analysis) was “does not alter the PK” and the “Cmax, mean peak serum concentration” value ([2]; 420 mg (n = 61), Cycle 1) was 231.7 µg/mL. For the same substance, the “Cmin, mean (±SD) trough serum concentration” value ([2]; 420 mg (n = 61), Cycle 1) was 64.6 (±20.9) μg/mL, the “Cmax, mean peak serum concentration” value ([2]; 420 mg (n = 61), Cycle 2) was 237.6 µg/mL and the “Cmin, mean (±SD) trough serum concentration” value ([2]; 420 mg (n = 61), Cycle 2) was 66.5 (±38.0) μg/mL. The “CL, systemic clearance (mean ± SD)” value ([2]; 420 mg (n = 61)) was 0.244 ± 0.095 L/day, the “Vc, volume of central compartment (mean ± SD)” value (from here on “Vc, volume … (mean ± SD)”) ([2]; 420 mg (n = 61)) was 2.70 ± 0.39 L and the “Vss, steady-state volume of distribution (mean ± SD)” value (“Vss … (mean ± SD)” for short) ([2]; 420 mg (n = 61)) was 4.73 ± 0.78 L. The “t1/2 initial, initial distribution half-life (mean ± SD)” value (“t1/2 initial … (mean ± SD)” below) ([2]; 420 mg (n = 61)) was 32.9 ± 2.88 h, the “t1/2 terminal, terminal half-life (mean ± SD)” value (shortened to “t1/2 terminal … (mean ± SD)”) ([2]; 420 mg (n = 61)) was 389 ± 113 h and the “Cmax, mean peak serum concentration” value ([2]; 1050 mg (n = 62), Cycle 1) was 390.9 µg/mL. For the same substance, the “Cmin, mean (±SD) trough serum concentration” value ([2]; 1050 mg (n = 62), Cycle 1) was 90.1 (±68.1) μg/mL, the “Cmax, mean peak serum concentration” value ([2]; 1050 mg (n = 62), Cycle 2) was 357.2 µg/mL and the “Cmin, mean (±SD) trough serum concentration” value ([2]; 1050 mg (n = 62), Cycle 2) was 94.7 (±47.3) μg/mL. The “CL, systemic clearance (mean ± SD)” value ([2]; 1050 mg (n = 62)) was 0.285 ± 0.119 L/day, the “Vc, volume … (mean ± SD)” value ([2]; 1050 mg (n = 62)) was 3.11 ± 0.72 L and the “Vss … (mean ± SD)” value ([2]; 1050 mg (n = 62)) was 5.39 ± 1.31 L. The “t1/2 initial … (mean ± SD)” value ([2]; 1050 mg (n = 62)) was 32.2 ± 2.64 h, the “t1/2 terminal … (mean ± SD)” value ([2]; 1050 mg (n = 62)) was 379 ± 125 h and the “impact on the PK of co-administered chemotherapeutic agents” value ([3]; docetaxel and capecitabine in Phase Ib studies, gemcitabine in a Phase II study) was “no evidence that pertuzumab impacted the PK”. The “change in clearance with dose” value ([3]; doses from 2.0 to 15.0 mg/kg) was “no change in clearance”, the systemic serum clearance [3, 14] was “approximately 0.24 L/day” and the terminal half-life [3, 14] was “approximately 17 days”. The “steady-state trough concentrations at which >80% suppression of tumor growth was achieved” value [4] was 5 to 25 µg/mL, the “suppression of tumor growth” value ([4]; steady-state trough concentrations 5-25 μg/mL) was greater than 80% and the “ECGs, blood pressures, and heart rates” value [5] was “normal”. The “cardiac injury caused by treatment, by histopathology” value [5] was “no evidence of cardiac injury”, the “serum chemistry parameters (Troponin T and creatine kinase isozymes)” value [5] was “lack of increases” and the “steady-state serum Cmin” value ([6]; 840 mg loading dose, 420 mg maintenance dose every 3 weeks, by the second treatment cycle) was “approximately 60 mg/mL”. For the same substance, the “attainment of steady-state Cmin and Cmax” value ([6]; loading dose 840 mg followed by 420 mg every 3 weeks) was “by the second cycle”, the “mean systemic clearance, range over dose groups” value [6, 15] was 0.225 to 0.285 L/day and the “mean volume of distribution of the central compartment, range over dose groups” value [6, 15] was 2.70 to 3.11 L. The “population variability of steady-state trough concentration and exposure with fixed-dosing, body surface area-based dosing, and weight-based dosing” value [7] was “similar”, the “effect on the PK of capecitabine and docetaxel” value ([8]; Phase Ib Studies BO17003 (capecitabine) and BO17021 (docetaxel)) was “does not alter the PK” and the “PK parameters for pertuzumab compared with single-agent pertuzumab studies” value ([8]; in combination with capecitabine or docetaxel) was “similar”. For the same substance, the confirmed partial responses [9, 16] was “Two”, the “tumor regression, patients evaluable for response” value [9, 16] was 3 of 20 and the tolerability ([9]; given intravenously every 3 weeks) was “generally well tolerated”. The “Cmax, mean peak serum concentration” value ([10]; 420 mg (n = 40), Cycle 1) was 202.9 µg/mL, the “Cmin, mean (±SD) trough serum concentration” value ([10]; 420 mg (n = 40), Cycle 1) was 56.5 (±21.2) μg/mL and the “Cmax, mean peak serum concentration” value ([10]; 420 mg (n = 40), Cycle 2) was 181.2 µg/mL. The “Cmin, mean (±SD) trough serum concentration” value ([10]; 420 mg (n = 40), Cycle 2) was 62.6 (±21.1) μg/mL, the “CL, systemic clearance (mean ± SD)” value ([10]; 420 mg (n = 40)) was 0.255 ± 0.096 L/day and the “Vc, volume … (mean ± SD)” value ([10]; 420 mg (n = 40)) was 2.98 ± 0.67 L. For the same substance, the “Vss … (mean ± SD)” value ([10]; 420 mg (n = 40)) was 5.12 ± 0.98 L, the “t1/2 initial … (mean ± SD)” value ([10]; 420 mg (n = 40)) was 32.6 ± 3.12 h and the “t1/2 terminal … (mean ± SD)” value ([10]; 420 mg (n = 40)) was 391 ± 84 h. For the same substance, the “Cmax, mean peak serum concentration” value ([10]; 1050 mg (n = 35), Cycle 1) was 425.6 µg/mL, the “Cmin, mean (±SD) trough serum concentration” value ([10]; 1050 mg (n = 35), Cycle 1) was 75.9 (±34.5) μg/mL and the “Cmax, mean peak serum concentration” value ([10]; 1050 mg (n = 35), Cycle 2) was 542.9 µg/mL. The “Cmin, mean (±SD) trough serum concentration” value ([10]; 1050 mg (n = 35), Cycle 2) was 136.6 (±53.5) μg/mL, the “CL, systemic clearance (mean ± SD)” value ([10]; 1050 mg (n = 35)) was 0.225 ± 0.121 L/day and the “Vc, volume … (mean ± SD)” value ([10]; 1050 mg (n = 35)) was 2.95 ± 0.81 L. For the same substance, the “Vss … (mean ± SD)” value ([10]; 1050 mg (n = 35)) was 5.11 ± 1.12 L, the “t1/2 initial … (mean ± SD)” value ([10]; 1050 mg (n = 35)) was 33.4 ± 3.6 h and the “t1/2 terminal … (mean ± SD)” value ([10]; 1050 mg (n = 35)) was 492 ± 194 h. The “association with an increase of TdP” value [11] was “no association noted”, the antibodies to pertuzumab ([12]; Phase I patients) was “not detected” and the linearity of pharmacokinetics ([12]; doses of 2.0-15 mg/kg) was “linear”. The “partial response (PR)” value [13] was “Two out of the 11”.

Reference: patent US20150037332A1, “TREATMENT OF METASTIC BREAST CANCER” (GENENTECH, INC., priority 2008, published 2015)
